Measured values taken from US12545899B2, “Luciferase enzymes for use with thermostable luciferins in bioluminescent assays” (Promega Corporation, priority 2018, dated 2026).
Numbering of substitutions follows the chain as printed. In names and notes the source's numbering stands.

B1: MK0133: SEQ ID NO: 101; H244W+T344I+I396K+S193A+N228D+L305F+S306P+I109V+C38R+F55I+A316W+T342S+V348I (protein)
chain: MADKNILYGPEPFYPLEDGTAGEQMFDALSRYAAIPGRIALTNAHTKENVLYEEILKLSCRLAESFKKYGLKQNDTIAVCSENSLQFFLPVIASLYLGIIVAPVNDKFVERELIHSLGIVKPRIVFCSKNTFQKVLNVKSKLKSIETIIILDLNEDLGGYQCLNNFISQNSDSNLDVKKFKPYSFNRDDQVAAIMFSSGTTGLPKGVMLTHKNIVARFSIAKDPTFGDAINPTSAILTVIPFHWGFGMMTTLGYFTCGFRVVLMHTFEEKLFLQSLQDYKVESTLLVPTLMAFLAKSALVEKYDFPHLKEIASGGWPLSKEIGEMVKKRFKLNFVRQGMGLTEITSAVLITPKGDAKPGSTGKIVPLHAVKVVDPTTGKILGPNEPGELYFKGPMKMKGYYNNEEATKAIIDNDGWLRSGDIAYYDNDGHFYIVDRLKSLIKYKGYQVAPAEIEGILLQHPYIVDAGVTGIPDEAAGELPAAGVVVQTGKYLNEQIVQDYVASQVSTAKWLRGGVKFLDEIPKGSTGKIDRKVLRQMLEKHTNGHHHHHHHH
B2: MK0134: SEQ ID NO: 102; H244W+T344A+I396K+S193A+N228D+L305F+S306P+I109V+C38R+F55I+Y108F+A316W+Y339M (protein)
chain: B1 chain with F108Y, M339Y, T342S, V348I
B3: MK0135: SEQ ID NO: 103; H244W+S193A+N228D+L305F+S306P+I109V+C38R+F55I+A316W+T342S+V348I (protein)
chain: B1 chain with I344A

Tests used:
[1] = Differential scanning fluorimetry (DSF) analysis; type: physicochemical; settings: Table 9B
Summary of the method: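 Thermal melt with 5× final Sypro Orange: ramp 1° C/min from 30 to 95° C, reading each 60 s, derivative of fluorescence plotted by temperature. Luciferase variants were in 20 mM HEPES pH 7.5, 200 mM NaCl, 1 mM EDTA; other enzymes in 50 mM HEPES pH 7.5, 100 mM NaCl, 2 mM EDTA.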

[2] = Kinetic analysis of thermostable variants with D/L-luciferin (Table 10); type: biochemical
Method: (§1) Experiments were also conducted to evaluate the activities (i.e. Vmax and Km) of the various thermostable luciferase variants of Ppe (SEQ ID NO: 1) described above.
(§2) Tables 10 and 11 include representative results of kinetic analysis of the thermostable variants with D/L luciferin, CS0333, and CS0280. […] MK0135 and MK0137 have amino acid substitutions that improve thermostability relative to MK0133 and MK0134, respectively, while retaining activity on the luciferin analogs CS0333 and CS0280.

[3] = Kinetic analysis of thermostable variants with CS0333 (Table 10); type: biochemical
Method: as §1, §2

[4] = Kinetic analysis of thermostable variants with CS0280 (Table 10); type: biochemical
Method: as §1, §2

Molecule | DSF Tm (° C.) [1] | Km ([2]; BrightGlo Buffer) | Vmax (RLU) ([2]; BrightGlo Buffer) | Km ([2]; Detection Reagent Buffer) | Vmax (RLU) ([2]; Detection Reagent Buffer) | Km ([3]; BrightGlo Buffer) | Vmax (RLU) ([3]; BrightGlo Buffer) | Km ([3]; Detection Reagent Buffer) | Vmax (RLU) ([3]; Detection Reagent Buffer) | Km ([4]; BrightGlo Buffer) | Vmax (RLU) ([4]; BrightGlo Buffer) | Km ([4]; Detection Reagent Buffer) | Vmax (RLU) ([4]; Detection Reagent Buffer)
B1 | 59 °C | 0.13 µM | 1,361,878 RLU | 0.993 µM | 1,545,274 RLU | 14 µM | 27,149,096 RLU | 77.4 µM | 21,861,957 RLU | 5.36 µM | 2,774,469 RLU | 41.6 µM | 266,359 RLU
B2 | 57 °C | 0.0257 µM | 377,267 RLU | 0.161 µM | 430,060 RLU | 2.24 µM | 11,167,451 RLU | 26.5 µM | 9,278,637 RLU | 1.21 µM | 15,499,640 RLU | 6.12 µM | 1,208,016 RLU
B3 | 78 °C | 0.157 µM | 490,914 RLU | 0.746 µM | 93,531 RLU | 43.4 µM | 4,782,661 RLU | 509 µM | 1,018,125 RLU | 22 µM | 343,822 RLU | 150 µM | 15,983 RLU
